The target in this assay is gHgLgO249 complex of 131stop-gO249 virions (human cytomegalovirus, strain TB40/E). The assay is described as follows: co-IP + pull-down; gB co-precipitated with gHgLgO from 131stop and 131stop-gO249 virion lysates using anti-gH antibody 14-4b or PDGFRα-Fc; WB, ImageJ; gO precipitation levels normalized and relative gB levels determined.

As for “glycoprotein gB of HCMV virions (natural protein)”, the fold change of co-precipitated gB against gHgLgOWT is 4 fold.
